Assay results as given in article PMC9927002 (Frontiers in Immunology, 2023).

B1: N3 (antibody, V domains shown)
VH: QMQLVQSGAEVKRPGSSVKVSCKASGGTFSVYAISWVRQAPGQGLEWMGGIIPIFGTANYAQKFQGRVTLTADESTSTAYMELSSLSSEDTAVYYCARGGYCSGANCPKWGEWSHSYNYMDVWGKGTTVTVSS
VL: not shown
notes: also called N3 hmAb
B2: N83 (antibody, V domains shown)
VH: QVQLQESGPRLVKSSETLSLTCTVSGGSISSGSYYWNWIRQPAGKGLEWIGRVYISGVTSYNPSLKSRVTISLDISKNQFSLQLTSVTAADSAVYYCARGGMAVGAPLYYYFYGMDVWGQGTTVTVSS
VL: DVVMTQSPLSLPVTPGEPASISCRSSQSLLHSNGYNYVDWYLQKPGQSPQLMIYLGSNRASGVPDRFSGSGSGTHFTLKISRVEAEDVGVYYCMQALQTLSITFGQGTRLEIK
notes: also called N83 hmAb
B3: 3B7 (antibody, V domains shown)
VH: QMQLVQSGAEVKKPGASVRVSCKVSGYSLTELPMHWVRQAPGKGLEWVGSFDPQDAETTYAQRFQGRVAMTEDTSTDTAYMELSSLRSEDTAVYYCATPAPTIVGVVIYALHIWGQGTMVTVSS
VL: EIVLTQSPGTLSLSPGERATLSCRASQRVSDNSLAWYQQKPGQAPSLLIFAASIRAPGIPDRISGTGSGTDFTLTINRLEPEDFVVYFCLQYTTSPPLTFGGGTKLEIK
notes: also called 3B7 hmAb
B4: N5 (antibody, V domains shown)
VH: QVQLVQSGAEVKKPGSSVKVSCKASGGTFSSYAIGWVRQAPGQGLEWMGAIIPIFGTTIFAQKFQGRVTITADESTTTAYMELSSLRSDDTAVYYCARGGGGVERGVILTRWFDPWGQGTLVTVSS
VL: QSVLTQPPSVSAAPGQKVTLSCSGSSSNIGNNHVSWYQQLPGTAPKLLIYDNNKRPSGIPDRFSGSKSGTSATLGITGLQTGDEADYYCGTWDNSLSAGVFGGGTKLTVV
notes: also called N5 hmAb
B5: N31 (antibody, V domains shown)
VH: QMQLVQSGAEVKKPGSSVKVSCKASGGTFSSYGISWVRQAPGQGLEWMGGIIPILGTANYAQRFQGRIALTADESTSTAYMEVSSLRSEDTAVYYCARGMWSNPPGYCCSYMDVWGKGTTVTVSS
VL: EIVLTQSPATLSVSPGERVTLACRASQSLRSKLAWYQQKPGQAPRLLIYDASTRATGFPARFSGSGSGTEFTLTISSLQSEDFAVYYCQQYSNWPRTFGQGTKLEIK
notes: also called N31 hmAb

The binders below were run against T1, full-length SARS-CoV-2 nucleocapsid (N) protein (SARS-CoV-2, NC_045512.2 (Wuhan-Hu-1), UniProt P0DTC9) (assay: BLI). Settings: one partner purified.
T1 construct: also called SARS-CoV-2 N protein; SARS-CoV-2 N/D7-Tag; not shown: D7-tag, C-terminal, kept

With B1 as the binder, how does the Kd read?
The Kd was under 0.001 nM.

What about the koff of the same binder?
The koff was under 1e-07 s⁻¹.

What about the kon of the same binder?
Its kon is 157000 M⁻¹ s⁻¹.

For B2, which Kd is on record?
Its Kd is 1.76 nM.

What about the koff of the same binder?
Its koff is 0.00113 s⁻¹.

What about the kon of the same binder?
Its kon is 639000 M⁻¹ s⁻¹.

For B3, which Kd is on record?
Its Kd is 1.94 nM.

What about the koff of the same binder?
The koff was 0.000689 s⁻¹.

What about the kon of the same binder?
The kon was 355000 M⁻¹ s⁻¹.

Which Kd does the source give for B4 here?
Its Kd is under 0.001 nM.

What about the koff of the same binder?
Its koff is under 1e-07 s⁻¹.

And the kon?
The kon was 137000 M⁻¹ s⁻¹.

Which results are given for B5?
Kd: < 0.001 nM; koff: < 1e-07 s⁻¹; kon: 174000 M⁻¹ s⁻¹

The binders below were run against T2, full-length N protein of SARS-CoV (SARS-CoV, NC_004718.3 (Tor2), UniProt P59595) (assay: ELISA). Settings: one partner purified.
T2 construct: also called SARS-CoV N; source: 293T cells, transfected (pcDNA3.1), in culture supernatant; not shown: D7-tag, C-terminal, kept

Does B1 bind?
Result: binds

Does B2 bind?
Result: binds

Does B3 bind?
Result: binds

Does B4 bind?
Result: binds

Does B5 bind?
Result: binds

Each binder was assayed against T3, full-length N protein of HKU1 (HCoV-HKU1 isolate N1, NC_006577.2, UniProt Q5MQC6) (assay: ELISA). Settings: one partner purified.
T3 construct: also called HKU1 N; source: 293T cells, transfected (pcDNA3.1), in culture supernatant; not shown: D7-tag, C-terminal, kept

Does B1 bind?
Result: no binding (tested: 10 µg/ml)

Does B2 bind?
Result: no binding (tested: 10 µg/ml)

Does B3 bind?
Result: no binding (tested: 10 µg/ml)

Does B4 bind?
Result: no binding (tested: 10 µg/ml)

Does B5 bind?
Result: no binding (tested: 10 µg/ml)
